Laboratory results from patent US20040156861A1 (US Dept. of Health and Human Services, published 2004).
Read-outs that look alike come from different tables or passages of the source. Each block holds one molecule with its values, some of them ahead of it.

What was measured:
[1] = biological target: gp100 154-162 epitope-analogue …; experiment: cell-based or functional assay
[2] = biological target: gp100 280-288 …; experiment: cell-based or functional assay
[3] = biological target: gp100 154-162 epitope …; experiment: cell-based or functional assay
[4] = biological target: gp100 280-288 …; experiment: cell-based or functional assay; remark: listed apart in the source
[5] = biological target: Melan-A/MART-1 27-35 epitope-analogue AIGIGLTV (SEQ ID NO: 30); experiment: cell-based or functional assay
[6] = biological target: Melan-A/MART-1 27-35 epitope …; experiment: cell-based or functional assay
HLA-A*0201 [7] = biological target: T1, HLA-A*0201 (human); experiment: T2 cell HLA-A*0201 stabilization, flow cytometry with mAb BB7.2
T1 construct: also called HLA-A2.1; HLA-A2

HLA-A*0201 [8] = biological target: T1, HLA-A*0201; experiment: as above; remark: listed apart in the source
Description: (§1) Briefly, peptides were diluted from DMSO stocks to various concentrations (final DMSO concentration 0.5%) and were incubated together with 10⁵ T2 cells for 14 hours at 37° C., 5% CO₂ in serum-free Iscoves medium in a volume of 100 ml in the presence of 3 mg/ml human β2-microglobulin (Sigma, St Louis, Mo.). […] The Fluorescence Index is expressed as: (experimental mean fluorescence÷background mean fluorescence)−1.
(§2) ^aBinding of peptides to HLA-A2.1 was analyzed using the processing-defective T2 cell line at the indicated peptide concentrations.

HLA-A*0201 [9] = biological target: T1, HLA-A*0201; experiment: as above; remark: listed apart in the source
Description: as §1, §2

HLA-A*0201 [10] = biological target: T1, HLA-A*0201; experiment: decay of cell-surface HLA-A*0201-peptide complexes at 37 C on emetine-pretreated B-LCL, flow cytometry
Description: Measurement of MHC-peptide complex stability was performed. […] The cells were then mild-acid treated and subsequently loaded with 200 mM of peptide for 1 hour at room temperature. Thereafter, the cells were washed twice to remove free peptide and were incubated at 37° C. for 0, 2, 4 and 6 hours.

HLA-A*0201 [11] = biological target: T1, HLA-A*0201; experiment: competition with 150 nM FL-labeled reference peptide on mild-acid treated HLA-A*0201+ JY B-LCL at 4 C, flow cytometry
Excerpt: Subsequently, the cells were washed, fixed with paraformaldehyde and analyzed by flow cytometry. […] The binding capacity of competitor peptides is expressed as the concentration needed to inhibit 50% of binding of the FL-labeled reference peptide (IC₅₀).

Fluorescence Index (HLA-A*0201 stabilization), 25 µM peptide (HLA-A*0201 [9]): 1.28
Fluorescence Index (HLA-A*0201 stabilization), 50 µM peptide (HLA-A*0201 [9]): 1.73
B1: gp100 154-162 epitope-analogue KMWGQYWQV (peptide)
peptide: KMWGQYWQV
notes: synthetic; N-terminal anchor (position 2) replaced by M

Fluorescence Index (HLA-A*0201 stabilization), 25 µM peptide (HLA-A*0201 [8]): 1.02
Fluorescence Index (HLA-A*0201 stabilization), 50 µM peptide (HLA-A*0201 [8]): 1.08
Molecule: KTWGQYWQA (synthetic; alanine at position 9) [gp100 154-162 epitope-analogue KTWGQYWQA]

Fluorescence Index (HLA-A*0201 stabilization), 25 µM peptide (HLA-A*0201 [9]): 1.55
Fluorescence Index (HLA-A*0201 stabilization), 50 µM peptide (HLA-A*0201 [9]): 2.19
Stability (DT 50%) (HLA-A*0201 [10]): > 4 h
IC50 (HLA-A*0201 [11]): 400 nM
B3: gp100 154-162 epitope-analogue KLWGQYWQV (peptide)
peptide: KLWGQYWQV
notes: synthetic; N-terminal anchor (position 2) replaced by L

Stability (DT 50%) (HLA-A*0201 [10]): > 4 h
IC50 (HLA-A*0201 [11]): 500 nM
Fluorescence Index (HLA-A*0201 stabilization), 25 µM peptide (HLA-A*0201 [8]): 1.35
Fluorescence Index (HLA-A*0201 stabilization), 50 µM peptide (HLA-A*0201 [8]): 1.72
Molecule: KTWGQYWAV (synthetic; alanine at position 8) [gp100 154-162 epitope-analogue KTWGQYWAV]

Fluorescence Index (HLA-A*0201 stabilization), 25 µM peptide (HLA-A*0201 [8]): 1.14
Fluorescence Index (HLA-A*0201 stabilization), 50 µM peptide (HLA-A*0201 [8]): 1.31
Molecule: KTWGQYAQV (synthetic; alanine at position 7) [gp100 154-162 epitope-analogue KTWGQYAQV]

Fluorescence Index (HLA-A*0201 stabilization), 25 µM peptide (HLA-A*0201 [9]): 1.57
Fluorescence Index (HLA-A*0201 stabilization), 50 µM peptide (HLA-A*0201 [9]): 2.13
Stability (DT 50%) (HLA-A*0201 [10]): > 4 h
IC50 (HLA-A*0201 [11]): 800 nM
B4: gp100 154-162 epitope-analogue KVWGQYWQV (peptide)
peptide: KVWGQYWQV
notes: synthetic; N-terminal anchor (position 2) replaced by V

Fluorescence Index (HLA-A*0201 stabilization), 25 µM peptide (HLA-A*0201 [8]): 1.02
Fluorescence Index (HLA-A*0201 stabilization), 50 µM peptide (HLA-A*0201 [8]): 1.17
Molecule: KTAGQYWQV (synthetic; alanine at position 3) [gp100 154-162 epitope-analogue KTAGQYWQV]

Fluorescence Index (HLA-A*0201 stabilization), 25 µM peptide (HLA-A*0201 [8]): 1.15
Fluorescence Index (HLA-A*0201 stabilization), 50 µM peptide (HLA-A*0201 [8]): 1.42
Molecule: KTWGQAWQV (synthetic; alanine at position 6) [gp100 154-162 epitope-analogue KTWGQAWQV]

Fluorescence Index (HLA-A*0201 stabilization), 25 µM peptide (HLA-A*0201 [8]): 1.25
Fluorescence Index (HLA-A*0201 stabilization), 50 µM peptide (HLA-A*0201 [8]): 1.59
Molecule: KTWGAYWQV (synthetic; alanine at position 5) [gp100 154-162 epitope-analogue KTWGAYWQV]

The next lines start with the molecule.

Molecule: T-cell receptor of gp100-reactive TIL 1200 lymphocytes (TCR)
peptide titration, sensitization of T2 target cells for lysis by TIL 1200 (FIG. 1) (fold lower concentration than wild type) [1]: 10
peptide titration, sensitization of T2 target cells for lysis by TIL 1200 (FIG. 2) (fold lower concentration than wild type) [1]: 10
% specific lysis by TIL 1200 of T2 target cells preincubated with 1 µM peptide, E:T 20:1 (% specific lysis) [2]: 3
% specific lysis by TIL 1200 of T2 target cells preincubated with 1 µM peptide, E:T 20:1 (% specific lysis) [3]: 67

Molecule: T-cell receptor of Melan-A/MART-1 27-35-reactive TIL 1235 lymphocytes (TCR)
% specific lysis by TIL 1235 of T2 target cells preincubated with 1 µM peptide, E:T 20:1 (% specific lysis) [4]: -1
% specific lysis by TIL 1235 of T2 target cells preincubated with 1 µM peptide, E:T 20:1 (% specific lysis) [5]: 27
% specific lysis by TIL 1235 of T2 target cells preincubated with 1 µM peptide, E:T 20:1 (% specific lysis) [2]: -3
% specific lysis by TIL 1235 of T2 target cells preincubated with 1 µM peptide, E:T 20:1 (% specific lysis) [6]: 40

Molecule: Melan-A/MART-1 27-35 epitope-analogue AIGIGLTV (SEQ ID NO: 30) (peptide)
Fluorescence Index (HLA-A*0201 stabilization), 25 µM peptide (HLA-A*0201 [7]): 1.29
Fluorescence Index (HLA-A*0201 stabilization), 50 µM peptide (HLA-A*0201 [7]): 1.58

Molecule: ATWGQYWQV (synthetic; alanine at position 1) [gp100 154-162 epitope-analogue ATWGQYWQV]
Fluorescence Index (HLA-A*0201 stabilization), 25 µM peptide (HLA-A*0201 [8]): 1.42
Fluorescence Index (HLA-A*0201 stabilization), 50 µM peptide (HLA-A*0201 [8]): 1.94

B2: gp100 154-162 epitope-analogue KIWGQYWQV (peptide)
peptide: KIWGQYWQV
notes: synthetic; N-terminal anchor (position 2) replaced by I
Fluorescence Index (HLA-A*0201 stabilization), 25 µM peptide (HLA-A*0201 [9]): 1.43
Fluorescence Index (HLA-A*0201 stabilization), 50 µM peptide (HLA-A*0201 [9]): 2
Stability (DT 50%) (HLA-A*0201 [10]): > 4 h
IC50 (HLA-A*0201 [11]): 600 nM

Molecule: KAWGQYWQV (synthetic; alanine at position 2) [gp100 154-162 epitope-analogue KAWGQYWQV]
Fluorescence Index (HLA-A*0201 stabilization), 25 µM peptide (HLA-A*0201 [8]): 1.2
Fluorescence Index (HLA-A*0201 stabilization), 50 µM peptide (HLA-A*0201 [8]): 1.57
